# According to publication PMC8629852 (Archives of biochemistry and biophysics, 2021):
# Legend:
# adrenodoxin = adrenodoxin (UniProt P00257); settings: cited from earlier work
# [1] = biological target: adrenodoxin (Homo sapiens) (UniProt P10109); assay: microscale thermophoresis; settings: cited from earlier work
# cross-linking = biological target: the molecule itself; assay: cross-linking
# Sequence of P450 27C1 (Q4G0S4 81-542): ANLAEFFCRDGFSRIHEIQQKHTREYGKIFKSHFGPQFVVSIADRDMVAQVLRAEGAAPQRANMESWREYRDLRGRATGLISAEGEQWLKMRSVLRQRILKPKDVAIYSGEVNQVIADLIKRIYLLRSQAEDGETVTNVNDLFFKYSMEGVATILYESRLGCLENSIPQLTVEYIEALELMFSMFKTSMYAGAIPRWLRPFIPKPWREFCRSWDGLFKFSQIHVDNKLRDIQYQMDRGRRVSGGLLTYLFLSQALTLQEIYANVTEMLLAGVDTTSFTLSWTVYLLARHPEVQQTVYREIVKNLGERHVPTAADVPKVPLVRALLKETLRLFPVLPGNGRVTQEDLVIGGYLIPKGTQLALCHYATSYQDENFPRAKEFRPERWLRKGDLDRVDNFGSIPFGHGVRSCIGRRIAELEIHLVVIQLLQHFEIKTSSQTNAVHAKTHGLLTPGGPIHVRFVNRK
# Sequence of AdR (P08165 33-492): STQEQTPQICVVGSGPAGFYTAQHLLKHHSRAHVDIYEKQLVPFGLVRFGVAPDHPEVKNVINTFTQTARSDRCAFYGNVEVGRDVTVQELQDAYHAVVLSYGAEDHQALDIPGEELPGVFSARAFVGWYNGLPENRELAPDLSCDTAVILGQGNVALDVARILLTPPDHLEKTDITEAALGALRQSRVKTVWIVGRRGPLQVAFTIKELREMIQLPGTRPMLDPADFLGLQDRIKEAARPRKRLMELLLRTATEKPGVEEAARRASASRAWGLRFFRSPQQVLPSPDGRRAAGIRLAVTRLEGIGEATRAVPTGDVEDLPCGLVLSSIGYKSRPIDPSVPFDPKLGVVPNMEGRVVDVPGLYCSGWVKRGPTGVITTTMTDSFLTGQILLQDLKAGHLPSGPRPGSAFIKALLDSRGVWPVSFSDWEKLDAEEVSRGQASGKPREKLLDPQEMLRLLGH
molecule,measurement,setting,value
AdR (from UniProt P08165),Kd,adrenodoxin,70 nM
P450 27C1 (from UniProt Q4G0S4),Kd,[1],220 nM
"Human adrenodoxin (Adx), unlabeled (natural protein, UniProt P10109 61-184, looked up) SSSEDKITVHFINRDGETLTTKGKVGDSLLDVVVENNLDIDGFGACEGTLACSTCHLIFEDHIYEKLDAITDEENDMLDLAYGLTDRSRLGCQICLTKSMDNMTVRVPETVADARQSIDVGKTS",stoichiometry N,cross-linking,2
